From patent publication US20140037648A1 come the findings set out here.

Assay [1] deals with F protein of RSV A/9835/09 (RSV (A/9835/09)). The experiment in a line: cell-based or functional assay.
The target of assay [2] is F protein of RSV 9727/2009 (B, Pavia IT, 2009; B/9727/09) (RSV (9727/2009)). The experiment in a line: cell-based or functional assay.
Assay [3] deals with F protein of RSV Randall (A, Chicago US, 1958; A/Randall/58) (RSV (strain Randall)). The experiment in a line: cell-based or functional assay.
Assay [4] addresses F protein of MPV I-PV-03/01-6621 (A1, Pavia IT, 2001; A1/6621/01) (MPV (I-PV-03/01-6621)). The experiment in a line: cell-based or functional assay.
For assay [5], the target named is F protein of RSV 9736/2009 (B, Pavia IT, 2009; B/9736/09) (RSV (9736/2009)). Nature of the assay: cell-based or functional assay.
In assay [6] the target is F protein of RSV A/9846/09 (RSV (A/9846/09)). Nature of the assay: cell-based or functional assay.
Assay [7] has as its target F protein of RSV 9847/2009 (B, Pavia IT, 2009; B/9847/09) (RSV (9847/2009)). The experiment in a line: cell-based or functional assay.
The target of assay [8] is stabilized form of the full-length pre-fusion RSV F protein (RSV). The experiment in a line: surface plasmon resonance.

pKd: −log10 of the molar value.

What is called pKd is −log10 of the Kd, conventionally taken in molar units.

For the substance Palivizumab (antibody), the Neutralization IC50 came out at 0.284 µg/mL in assay [1]; 0.275 µg/mL in assay [2]; 0.44 µg/mL in assay [3]; 0.092 µg/mL in assay [5]; 0.283 µg/mL in assay [6]; 0.209 µg/mL in assay [7]. Moreover, the IC50 (ng/ml), microneutralization in assay [4] was greater than 20000 ng/mL. Besides, in assay [8], the pKd was 8.70.
